In PMC8200006 one finds Ca2+-ATPase activity of purified pig brain PMCA reconstituted in PC, sorcin 12.5-50 nM in the assay medium, with Ca2+: fold activation and Ca2+-ATPase activity of purified pig brain PMCA reconstituted in PC: EC50 of activation by sorcin (in the assay medium) data, which are given here for one molecule.

The target of the assay is purified pig brain plasma membrane Ca2+-ATPase (PMCA) (pig) (UniProt P23220).
Sequence of UniProt P23220 (P23220 whole entry): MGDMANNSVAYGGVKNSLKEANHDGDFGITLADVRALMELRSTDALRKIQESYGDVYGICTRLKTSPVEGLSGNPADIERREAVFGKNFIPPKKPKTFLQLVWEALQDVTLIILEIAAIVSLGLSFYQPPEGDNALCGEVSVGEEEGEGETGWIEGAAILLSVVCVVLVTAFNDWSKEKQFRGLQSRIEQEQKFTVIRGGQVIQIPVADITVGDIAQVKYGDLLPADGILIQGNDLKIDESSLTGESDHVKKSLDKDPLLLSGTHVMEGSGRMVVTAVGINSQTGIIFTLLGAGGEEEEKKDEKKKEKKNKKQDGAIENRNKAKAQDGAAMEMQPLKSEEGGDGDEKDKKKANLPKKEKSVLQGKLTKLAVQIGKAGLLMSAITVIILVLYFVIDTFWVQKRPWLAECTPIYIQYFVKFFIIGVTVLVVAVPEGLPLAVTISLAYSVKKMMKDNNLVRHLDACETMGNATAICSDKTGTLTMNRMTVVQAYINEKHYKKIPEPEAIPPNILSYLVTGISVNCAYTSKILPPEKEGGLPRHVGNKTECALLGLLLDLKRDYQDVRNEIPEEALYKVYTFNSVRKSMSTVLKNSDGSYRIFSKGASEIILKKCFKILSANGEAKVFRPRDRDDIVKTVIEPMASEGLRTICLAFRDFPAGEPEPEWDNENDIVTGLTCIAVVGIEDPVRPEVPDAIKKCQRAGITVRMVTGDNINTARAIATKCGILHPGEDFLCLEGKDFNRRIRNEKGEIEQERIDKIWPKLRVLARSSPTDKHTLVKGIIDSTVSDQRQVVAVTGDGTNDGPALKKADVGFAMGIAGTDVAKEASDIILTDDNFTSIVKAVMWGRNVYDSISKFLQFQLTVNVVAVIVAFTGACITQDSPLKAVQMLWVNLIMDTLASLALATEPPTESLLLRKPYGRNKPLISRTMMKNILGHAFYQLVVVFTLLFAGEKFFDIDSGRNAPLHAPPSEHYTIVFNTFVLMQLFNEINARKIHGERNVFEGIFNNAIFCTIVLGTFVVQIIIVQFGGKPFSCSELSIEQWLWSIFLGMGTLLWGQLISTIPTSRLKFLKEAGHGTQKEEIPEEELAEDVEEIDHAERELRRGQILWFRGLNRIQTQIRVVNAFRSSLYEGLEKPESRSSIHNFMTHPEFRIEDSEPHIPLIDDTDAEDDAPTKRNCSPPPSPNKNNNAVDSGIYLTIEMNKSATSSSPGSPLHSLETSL

B1: Recombinant Human SRI (sorcin), soluble resistance-related calcium-binding protein (natural protein)
chain: MAYPGHPGAGGGYYPGGYGGAPGGPAFPGQTQDPLYGYFAAVAGQDGQIDADELQRCLTQSGIAGGYKPFNLETCRLMVSMLDRDMSGTMGFNEFKELWAVLNGWRQHFISFDTDRSGTVDPQELQKALTTMGFRLSPQAVNSIAKRYSTNGKITFDDYIACCVKLRALTDSFRRRDTAQQGVVNFPYDDFIQCVMSV
Molecule B1 came in with a Ca2+-ATPase activity of purified pig brain PMCA reconstituted in PC, sorcin 12.5-50 nM in the assay medium, with Ca2+: fold activation of 1.8 fold and a Ca2+-ATPase activity of purified pig brain PMCA reconstituted in PC: EC50 of activation by sorcin (in the assay medium) of 12.5 nM.
